Here are results for 40 sequences from the nanobody polyreactivity screen of Harvey et al. (2022).

This series is described as follows: yeast display, Sf9 membrane polyspecificity reagent, FACS + sequencing; frameworks hold sequencing errors. An outline of the steps: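 A nanobody's polyreactivity label depends on the gate it was sorted from. Yeast display cells were stained with 10% biotinylated, detergent-solubilized Sf9 membrane reagent for 1 hour at 4 °C, enriched on streptavidin microbeads and sorted by FACS. The low and high (top ~1%) gates were set on anti-HA fluorescence for expression and streptavidin fluorescence for reagent binding.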
In the case of “QVQLVESGGGLVQAGGSLRLSCAASGSIFRCNAMGWYRQAPGKERELVAVINSSGGSTYYADSVKGRFTISRDNAKNTVYLQMNSLKPEDTAVYYCAADLFLDGSSQYDPNWWPDGWNTYRLLGGYWGQGTQVTVSS”, the “polyreactivity (PSR sort gate)” value was “low polyreactivity”.

For the sequence “QVQLVESGGGLVQAGGSLRLSCAASGSTYSYYAMGWYRQAPGKERELVAAITTSGGRTYYADSVKGRFTISRDNAKNTVYLQMNSLKPEDTAVYYCNARRHWYSAWGYDYWGQGTQVTVSS”, the “polyreactivity (PSR sort gate)” value is “high polyreactivity”.

Take “QVQLVESGGGIVQAGRSLRLSCAASGSIFDFNAMGWYRQAPGKERELVAAITWGGGSTYYAYSVKGRFTNSRDNEKNTVYLQIKSLKPEDTAVYYCNAAYGRYRYDYWGQGTQVTVSS”: the “polyreactivity (PSR sort gate)” value is “low polyreactivity”.

Take “QVQLVESGGGLVQAGGSLRLSCAASGSTFSLYAMGWYRQAPGKERELVASITWGGGSTYADSVKGRFTISRDNAKNTVYLQMNSLKPEDTAVYYCARKYRYRVLYDFAYDHWGQGTQVTVSS”: the “polyreactivity (PSR sort gate)” value is “low polyreactivity”.

As to “QVQLVESGGGLVQAGRSLRLSCAASGRIFVPYVMGWYRQAPGKERELVASISDSDTSTYYADSVKGRFTISRDNAKNTVYVQMNSLKPEDTAVYYCNVDYWGQGTQVTVSS”, the “polyreactivity (PSR sort gate)” value is recorded as “low polyreactivity”.

Turning to “QVQLEESGVGLVQAGGSLRLSCAASGSIYGYAMGWYRQSPGKQRELVASISSGGSTYYADSVKGRFTISRDNAKNSVYLQMNSLKPEDTAVYYCAARAYSYQAQSYYWGQGTQVTVSS”, the “polyreactivity (PSR sort gate)” value was “high polyreactivity”.

Regarding “QVQLVESGGGLVQAGGSLRLSCAASGSTSSYNAMGWYRQAPGKERELVAAINSGDNTYYADSVKGRFTISRDNAKNTVYLQMNSLKPDDTAVYYCNKVTRNFNYDYWGQGTQVTVSS”, the “polyreactivity (PSR sort gate)” value is recorded as “low polyreactivity”.

For the sequence “QVQLVESGGGLVQAGGSLRLSCAASGRTFRKNAMGWSRQAPGKDRELVAAISASGTSTYYADSVKGRFTISRDNAKNTVYLQLNSLKPEDTAVYYSAARSYGIYDYWGQGTQVTVSS”, the “polyreactivity (PSR sort gate)” value is recorded as “high polyreactivity”.

“QVKLVESGGGLVQAGGSLRLSCAASGFTFALYSMGWYRQAPGKERELVAAITRRGGSTYYADSVKGRFTISRDNAKNTVYVQMNSLKPEDTAVYYCAKRERAIKVSRYDSHDYWGQGTQVTVSS”: the “polyreactivity (PSR sort gate)” value is given as “high polyreactivity”.

Turning to “QVQLVESGGGLVQAGGSLRLSCAATGLIIRYYAMGWYRQAPGKEREFVAAITWNGGSTYADSVKGRFTISRDNAKNTVYLQMNSLKPEDTAVYYSAADLSYWDDFDYWGQGTQVTVSS”, the “polyreactivity (PSR sort gate)” value is reported as “low polyreactivity”.

For “QVQLVESGGGLVQAGGSLRLSCAASGFTFQTYAMGWYRQAPGKERELVATINSSGGGTYYADSVKGRFTISRDNAKNTVYLQMNSLKPEDTAVDYCAADAVWFVGQAFDISDSTTYGYWGQGTQVTVSS”, the “polyreactivity (PSR sort gate)” value was “low polyreactivity”.

Turning to “QVQLVESGGGLVQAGGSLRLTCAASGRIYTYNAMGRYRKAPGKERELVATITWRGGGTYYADSVKGRFTISRDNAKNTVYLQMNSLKPEDTAVYYCIRRLPGDGQYGYRRFDYWGQGTQVTVSS”, the “polyreactivity (PSR sort gate)” value is “low polyreactivity”.

As for “QVQLVESGGGLVQAGGSLRLSCAASGSIFEEYAMGWYRQAPGKERELVARIDESGGSTYYADSVKGRFTISRDNAKNTVYLQMHSLKPEDSAVYYCAAVVTAQAYAYFTYGYDYWGQGTQVTVSS”, the “polyreactivity (PSR sort gate)” value is reported as “low polyreactivity”.

Turning to “QVQLVESGGGLVQAGGSLRLSCAASGFIFYRNTMGWYRQAPGKERELDAAISWSGARTYYADSVKGRFTISRDNAKNTVYLQMNSLKPEDTAVYYCNTVFYLHSTTTNGDYWGQGTQVTVSS”, the “polyreactivity (PSR sort gate)” value is “high polyreactivity”.

As to “QVQLVESGGGLVQARGSLRLSWAASGIIFALYAMGWSRQAPGKERELVAAISSDGITKYADSVKGRFTISRDNAKNPDYLQMNSLKPEDTAVYYCAADGYPGDYDYWGQGTQVTVSS”, the “polyreactivity (PSR sort gate)” value was “low polyreactivity”.

As to “QVQLVESGGGLVQAGGSLRLSCAASGITVGDYAMGWYRQAPGKEREVVAAISYTGGSTYYADSVKGRFTISRDNAQNTGYLQMNSLKPEDTAVYYCAADGYRDYDSWGQGTQVTVSS”, the “polyreactivity (PSR sort gate)” value is on record as “high polyreactivity”.

As for “QVQLVESGGGLVQAGCSLRLSCAASGITFTEYAMGWSRQAPGKERELGATISYGGGITYYADSVKGRFTISRDNAKNTVYLQMNSLKPEDTAVYYCAADGLSQVQRGMDYWGQGTQVTVSS”, the “polyreactivity (PSR sort gate)” value is “low polyreactivity”.

As for “QVQLVESGVGLVQAGGSLRVSCAASGSICNYYAMVWYRQAPGKERELVATISSGGNTKYADSVKRRFTISRDNAKNTVSLQMNSQKPEDTAVYYCAARWQHSGYRDRYWYDYWGQGTQVTVSS”, the “polyreactivity (PSR sort gate)” value is given as “low polyreactivity”.

Turning to “QVQLVESGGGLVQAGGSLRLSCAASGGIFLGNAMAWYRQATGKETELVASITRGGDTSYADSVKARFTFSRDNAKNTVYLQMNSLKPEDTAVYYCNADYYSVVEYDYWGQGTQVTVSS”, the “polyreactivity (PSR sort gate)” value was “low polyreactivity”.

Consider “QVQLVESGGGLVQAGGSLRLSCAASGRTFGGNAMGWYRQAPGKERELVASITKRSGSTYYADSVKGRFTISRDNAKNTVYLQMNSLKPEDTAVYYCNTKPSYYFFANTYYGYNDDYWGQGTQVTVSS”, for which the “polyreactivity (PSR sort gate)” value is “high polyreactivity”.

On to “QVQLVESGGGLVQAGCSLRLSCAASGRTFGVYAMGWYRQAPGKERELVAGIRWRGGSTYYADSVKGRFTISRDNAKNTVYLQMNSLKPEDTAVYYCAADVYLVKYDYWGQGTQVTVSS”, for which the “polyreactivity (PSR sort gate)” value is “low polyreactivity”.

As for “QVQLVESGVGLVQAGGSHRLSSGASGSIFSSYAMGWYRQEPVKERELVADISQSGGDTYYADSVQGRFTISRDNANNTVYLQRNSLKPEDNAVYYCAASVWYYPMDYWGKGTQVTVSS”, the “polyreactivity (PSR sort gate)” value is on record as “low polyreactivity”.

Take “QVQLVESGGGLVQAGGSLRLSCPASGSTFARNAMGWSRQAPGKEREFVASIRWGGGSTYYADSVKARFTISRDNAKNTVYLQMNSLKAEDTAVYYCATRGWSKHLFGGYTQYYYWGQGTQVTVSS”: the “polyreactivity (PSR sort gate)” value is reported as “high polyreactivity”.

In the case of “QVQLVESGGGLVQAGGSLRLSCAASGITFAGYAMRWYRQAPGKERELVASMTWGGGRTYYADSVKRRFTISRDNAKNTVYLQMNSLKPEDTAVYYCATRRRPQYNKYDYWGQGTQVTVSS”, the “polyreactivity (PSR sort gate)” value is “high polyreactivity”.

As for “QVQLVESGGGLVQAGGSLRLSCPASGRTFRWYAMGWYRQAPGKERELVAAISQSGGSTYYAVSVKGRFTISRDNAKNTVYLQMNSLKPEDTAVYYFNAYPPYGGYAYGRGDYWGQGTQVTVSS”, the “polyreactivity (PSR sort gate)” value was “high polyreactivity”.

As for “QVQLVESGGGLVQAGGSLRLSCAASGIIFYDYAMGWYRPAPGKERELVAAINYSGGSTYYADSVKGRFTISRDNAKNTVYLQMNSLKPEDTAVYYCAADNAVWEYDYWGQGTQVTVSS”, the “polyreactivity (PSR sort gate)” value is “low polyreactivity”.

For “QVQLVESGGGLVQAGGSLRLSCAASGFIFGHNAMGWYRQAPGKQRELVAAITYSGGSTYYADSVKGRFTISRDNAKNTVYLQMNSLKPEDTAVSYSAASNQWSSTYLTYGYYYWGQGTQVTVSS”, the “polyreactivity (PSR sort gate)” value is on record as “low polyreactivity”.

“QVQLVESGGGLVQAGGSLRLSCAASGLTFYGNARGWYRQAPGKERELVADISLSGGRTFYADSVKGRFTISRDNAKHTVYLQMNSLKPEDTAVYYCANTYTSGYHRRYDYWGQGTQVTVSS”: the “polyreactivity (PSR sort gate)” value is “low polyreactivity”.

With “QVQLLETGGGLVQAGGSLRLSCAASGIPFDIYTMGWYIQAPGKERELVAASSYSGGTTYYADSVKGRFTISRDNAKNTVYLQMISLKPEDTAVYYCAAYEGTYFTEVDYWGQGTQVTVSS”, the “polyreactivity (PSR sort gate)” value is reported as “low polyreactivity”.

In the case of “QVQLVESGGGLFQEGGSLRLSCAASGSIFTFYAMGWYRQAPGKERELVAAITSGGSTTYADSVKGRFTISRDNAKNTVYLQMNSLKREDTAVFYCNAESWWGYYYWGQVTQVTVSS”, the “polyreactivity (PSR sort gate)” value is reported as “high polyreactivity”.

In the case of “QVQLVESGGGLVQAGGSLRLSCAASGRIFRPNAMGWYRQAPGKERELVAAISYSGATTYYADSVKGRFTISRDNAKNTVYLQMNSLKPEDTAVYYCAADTPDAPDYSGFYYWGQGTKVTVSS”, the “polyreactivity (PSR sort gate)” value is reported as “low polyreactivity”.

As to “QVQLVESGGGLVQAGGSLRLSCAASGTFQYNAMGWYRQAPGKERELLAAITSGGSTNYADSVKGRFTISRDNAKNTVYLQMNSLKPEDTAVYYCAAVRRYRASRGSLYYYWGQGTQVTVSS”, the “polyreactivity (PSR sort gate)” value is listed as “high polyreactivity”.

For “QVQLVESGGGLVQAGGSLRLSCAASGLTIAAYAMGWYRQAPGKERELVAAITQRGGSTYYADSVKGRFTISRDNAKNTVYLQMNSLKPEDTAVYYCAADSTWWWWKLYSPYGYDYWGQGTQVTVSS”, the “polyreactivity (PSR sort gate)” value was “low polyreactivity”.

As to “QVQLVESGGGLVQAGGSLRLSCAASGRIFWYYAMGWYRQAPGKERELVATISYGGGNTYYADSVKGRFTISRDNAKNTVYLQMNSLKPEDTAVYYCARVPYAYLPYKPFQQYSYDYWGQGTQVTVSS”, the “polyreactivity (PSR sort gate)” value was “high polyreactivity”.

With “QVQLVESGGGLVQAGGSLRLSCAASGSTFSPNARGWYRQAPGKERELVAAITYRGANTYYADSVKGRFTISRDNAKNTVYLQMNSLKPEDTAVYYCAAENWIGAYYWGQGTQVTVSS”, the “polyreactivity (PSR sort gate)” value is on record as “low polyreactivity”.

As to “QVQLVESGGGLVQAGGSLRLSCAASGSIFSINAMVSYRQAPGKERELVAAISASGGSTYYADSVKGRFTISRDFAKITVYLHMNSLKPEDTAVFYCAAEGSPTGYDYWGQGTQVTVSS”, the “polyreactivity (PSR sort gate)” value is on record as “low polyreactivity”.

With “QVQLVESGGGLVQAGGSLRLTCGASGRIFSFYVMGWYRQAPGKERELVAAISLSGGSTYYADSVKGRFTISRDNAKNTVYLQMNSLKPEDTAVYYCAARYASPRYKSKMDYWGQGTQVTVSS”, the “polyreactivity (PSR sort gate)” value was “high polyreactivity”.

In the case of “QVQLVESGGGLVQAGGSLRLSCAASGNIFQRYAMGWYRQAPGKERELVAAISYSGARTYYADSVKGRFTISRDNAKNTVYLQMNSLKPEDTAVYYCATYGGLTKFRLAYDYWGQGTQVTVSS”, the “polyreactivity (PSR sort gate)” value was “high polyreactivity”.

For “QVQLVESGGGLVQEGGSLRLSCAASGFTLHVYAMGWYRQAPGKERELVAAISTGGNTNYADSVKGRFTISRDNAKNTVYLQMNSLKPEDTAVYYCNARYTSRRSRRPYYYWGQGTQVTVSS”, the “polyreactivity (PSR sort gate)” value is reported as “high polyreactivity”.

Regarding “QVQLVESGGGLVQAGGSLRLSCAASGSIFSFNAMGWYRQAPGKERELVAAISYSGGSTYADSVKGRFTISRDNAKNTVYLHMNSLKPEDTAVYYCAADGLDYSSGGDGYWGQGTQVTVSS”, the “polyreactivity (PSR sort gate)” value is “low polyreactivity”.
